Source: publication PMC12102759 (2025)

B1: TPTE2 peptide 92-107 (Phosphatidylinositol 3,4,5-trisphosphate 3-phosphatase TPTE2), 16-mer library wild type / TLN1 PTB (TLN1 Phosphotyrosine-binding (PTB) domain, residues 309-401) (parent complex)
chain 1: LADLIFTDSKLYIPLE
chain 2: GVSFFLVKEKMKGKNKLVPRLLGITKECVMRVDEKTKEVIQEWNLTNIKRWAASPKSFTLDFGDYQDGYYSVQTTEGEQIAQLIAGYIDIILK
B2: AXIN1 peptide 237-252 (Axin-1), 16-mer library wild type / PP2A B56 (PPP2R5A B56 domain, residues 1-486) (parent complex)
chain 1: YLPTLNEDEEWKADQD
chain 2: not shown

Variants of: B1
Experiment: proteomic peptide phage display deep mutational scan (ProP-PD DMS): M13 P8 16-mer library selected against immobilised GST-tagged bait for four days (rounds), NGS of the eluted pools per day and pseudo-replica; bait immobilised on MaxiSorp plates (10 µg), library pre-cleared on GST, 2 h binding at 4 °C, five washes; one round per day, days 1-4; value from days 2 and 3

| Variant | screen value |
| --- | --- |
| chain 1 LADLIFTDSSLYIPLE | 0.000449 average fractional NGS count over selection days 2 and 3 (reads of this peptide / all reads for the bait, averaged over … |
| chain 1 LADLIFTDSTLYIPLE | 0.000653 average fractional NGS count over selection days 2 and 3 (reads of this peptide / all reads for the bait, averaged over … |
| chain 1 LADLIFTDSKLYIPGE | 0.000168 average fractional NGS count over selection days 2 and 3 (reads of this peptide / all reads for the bait, averaged over … |
| chain 1 LADLIFTDSKLYIPME | 0.00539 average fractional NGS count over selection days 2 and 3 (reads of this peptide / all reads for the bait, averaged over … |
| chain 1 LADLIFTDSKLYIPIE | 0.00147 average fractional NGS count over selection days 2 and 3 (reads of this peptide / all reads for the bait, averaged over … |
| chain 1 LADLIFTDSKLYIPSE | 0.000436 average fractional NGS count over selection days 2 and 3 (reads of this peptide / all reads for the bait, averaged over … |
| chain 1 LADLIFTDSKLYIPAE | 0.000297 average fractional NGS count over selection days 2 and 3 (reads of this peptide / all reads for the bait, averaged over … |
| chain 1 LADLIFTDSKLYIPRE | 0.0012 average fractional NGS count over selection days 2 and 3 (reads of this peptide / all reads for the bait, averaged over … |
| chain 1 LADDIFTDSKLYIPLE | 0.0012 average fractional NGS count over selection days 2 and 3 (reads of this peptide / all reads for the bait, averaged over … |
| chain 1 LADEIFTDSKLYIPLE | 0.000131 average fractional NGS count over selection days 2 and 3 (reads of this peptide / all reads for the bait, averaged over … |
| chain 1 LADMIFTDSKLYIPLE | 0.000697 average fractional NGS count over selection days 2 and 3 (reads of this peptide / all reads for the bait, averaged over … |
| chain 1 LADLIFNDSKLYIPLE | 0.000232 average fractional NGS count over selection days 2 and 3 (reads of this peptide / all reads for the bait, averaged over … |
| chain 1 LADLIFQDSKLYIPLE | 0.000521 average fractional NGS count over selection days 2 and 3 (reads of this peptide / all reads for the bait, averaged over … |
| chain 1 LADLIFMDSKLYIPLE | 0.000146 average fractional NGS count over selection days 2 and 3 (reads of this peptide / all reads for the bait, averaged over … |
| chain 1 LADLSFTDSKLYIPLE | 0.000525 average fractional NGS count over selection days 2 and 3 (reads of this peptide / all reads for the bait, averaged over … |
| chain 1 LADLLFTDSKLYIPLE | 0.000706 average fractional NGS count over selection days 2 and 3 (reads of this peptide / all reads for the bait, averaged over … |
| chain 1 LADLNFTDSKLYIPLE | 0.00116 average fractional NGS count over selection days 2 and 3 (reads of this peptide / all reads for the bait, averaged over … |
| chain 1 LADLTFTDSKLYIPLE | 0.000326 average fractional NGS count over selection days 2 and 3 (reads of this peptide / all reads for the bait, averaged over … |
| chain 1 LADLAFTDSKLYIPLE | 0.00216 average fractional NGS count over selection days 2 and 3 (reads of this peptide / all reads for the bait, averaged over … |
| chain 1 LADLIFTDSKLYIPLK | 0.000641 average fractional NGS count over selection days 2 and 3 (reads of this peptide / all reads for the bait, averaged over … |
| chain 1 LADLIFTDSKLYIPLW | 0.00358 average fractional NGS count over selection days 2 and 3 (reads of this peptide / all reads for the bait, averaged over … |
| chain 1 LADLIFTDSKLYIPLP | 0.00113 average fractional NGS count over selection days 2 and 3 (reads of this peptide / all reads for the bait, averaged over … |
| chain 1 LADLIFTDSKLYIPLT | 0.00391 average fractional NGS count over selection days 2 and 3 (reads of this peptide / all reads for the bait, averaged over … |
| chain 1 LAELIFTDSKLYIPLE | 0.000596 average fractional NGS count over selection days 2 and 3 (reads of this peptide / all reads for the bait, averaged over … |
| chain 1 LADLIFTESKLYIPLE | 0.00151 average fractional NGS count over selection days 2 and 3 (reads of this peptide / all reads for the bait, averaged over … |
| chain 1 LADLIFTDSKIYIPLE | 0.00106 average fractional NGS count over selection days 2 and 3 (reads of this peptide / all reads for the bait, averaged over … |

Variants of: B2
Experiment: as above

| Variant | screen value |
| --- | --- |
| chain 1 T4A | 0.000216 average fractional NGS count over selection days 2 and 3 (reads of this peptide / all reads for the bait, averaged over … |
| chain 1 T4S | 0.000737 average fractional NGS count over selection days 2 and 3 (reads of this peptide / all reads for the bait, averaged over … |
| chain 1 T4P | 0.00197 average fractional NGS count over selection days 2 and 3 (reads of this peptide / all reads for the bait, averaged over … |
| chain 1 T4Q | 0.00351 average fractional NGS count over selection days 2 and 3 (reads of this peptide / all reads for the bait, averaged over … |
| chain 1 Y1Q | 0.000381 average fractional NGS count over selection days 2 and 3 (reads of this peptide / all reads for the bait, averaged over … |
| chain 1 Y1H | 0.000114 average fractional NGS count over selection days 2 and 3 (reads of this peptide / all reads for the bait, averaged over … |
| chain 1 Y1A | 0.000622 average fractional NGS count over selection days 2 and 3 (reads of this peptide / all reads for the bait, averaged over … |
| chain 1 Y1L | 0.00157 average fractional NGS count over selection days 2 and 3 (reads of this peptide / all reads for the bait, averaged over … |
| chain 1 Y1K | 0.000785 average fractional NGS count over selection days 2 and 3 (reads of this peptide / all reads for the bait, averaged over … |
| chain 1 Y1S | 0.000305 average fractional NGS count over selection days 2 and 3 (reads of this peptide / all reads for the bait, averaged over … |
| chain 1 Y1W | 0.000316 average fractional NGS count over selection days 2 and 3 (reads of this peptide / all reads for the bait, averaged over … |
| chain 1 Y1V | 0.000255 average fractional NGS count over selection days 2 and 3 (reads of this peptide / all reads for the bait, averaged over … |
| chain 1 Y1R | 0.000195 average fractional NGS count over selection days 2 and 3 (reads of this peptide / all reads for the bait, averaged over … |
| chain 1 Q15R | 0.000634 average fractional NGS count over selection days 2 and 3 (reads of this peptide / all reads for the bait, averaged over … |
| chain 1 Q15L | 0.00865 average fractional NGS count over selection days 2 and 3 (reads of this peptide / all reads for the bait, averaged over … |
| chain 1 Q15F | 0.00274 average fractional NGS count over selection days 2 and 3 (reads of this peptide / all reads for the bait, averaged over … |
| chain 1 Q15P | 0.000686 average fractional NGS count over selection days 2 and 3 (reads of this peptide / all reads for the bait, averaged over … |
| chain 1 Q15G | 0.00117 average fractional NGS count over selection days 2 and 3 (reads of this peptide / all reads for the bait, averaged over … |
| chain 1 Q15V | 0.000515 average fractional NGS count over selection days 2 and 3 (reads of this peptide / all reads for the bait, averaged over … |
| chain 1 Q15N | 0.00887 average fractional NGS count over selection days 2 and 3 (reads of this peptide / all reads for the bait, averaged over … |
| chain 1 Q15A | 0.00159 average fractional NGS count over selection days 2 and 3 (reads of this peptide / all reads for the bait, averaged over … |
| chain 1 Q15S | 0.00176 average fractional NGS count over selection days 2 and 3 (reads of this peptide / all reads for the bait, averaged over … |

| Variant | screen value |
| --- | --- |
| chain 1 Q15T | 0.0102 average fractional NGS count over selection days 2 and 3 (reads of this peptide / all reads for the bait, averaged over … |
| chain 1 E9A | 0.00203 average fractional NGS count over selection days 2 and 3 (reads of this peptide / all reads for the bait, averaged over … |
| chain 1 E9I | 0.00451 average fractional NGS count over selection days 2 and 3 (reads of this peptide / all reads for the bait, averaged over … |
| chain 1 E9R | 0.000957 average fractional NGS count over selection days 2 and 3 (reads of this peptide / all reads for the bait, averaged over … |
| chain 1 E9T | 0.00244 average fractional NGS count over selection days 2 and 3 (reads of this peptide / all reads for the bait, averaged over … |
| chain 1 E9N | 0.000581 average fractional NGS count over selection days 2 and 3 (reads of this peptide / all reads for the bait, averaged over … |
| chain 1 E9P | 0.00261 average fractional NGS count over selection days 2 and 3 (reads of this peptide / all reads for the bait, averaged over … |
| chain 1 E9Q | 0.0159 average fractional NGS count over selection days 2 and 3 (reads of this peptide / all reads for the bait, averaged over … |
| chain 1 E9G | 0.000581 average fractional NGS count over selection days 2 and 3 (reads of this peptide / all reads for the bait, averaged over … |
| chain 1 E9W | 0.00436 average fractional NGS count over selection days 2 and 3 (reads of this peptide / all reads for the bait, averaged over … |
| chain 1 E9S | 0.00105 average fractional NGS count over selection days 2 and 3 (reads of this peptide / all reads for the bait, averaged over … |
| chain 1 L5I | 0.00162 average fractional NGS count over selection days 2 and 3 (reads of this peptide / all reads for the bait, averaged over … |
| chain 1 L5V | 0.00197 average fractional NGS count over selection days 2 and 3 (reads of this peptide / all reads for the bait, averaged over … |
| chain 1 L5W | 0.000869 average fractional NGS count over selection days 2 and 3 (reads of this peptide / all reads for the bait, averaged over … |
| chain 1 D8E | 0.000771 average fractional NGS count over selection days 2 and 3 (reads of this peptide / all reads for the bait, averaged over … |
| chain 1 D8S | 0.0116 average fractional NGS count over selection days 2 and 3 (reads of this peptide / all reads for the bait, averaged over … |
| chain 1 D8F | 0.000675 average fractional NGS count over selection days 2 and 3 (reads of this peptide / all reads for the bait, averaged over … |
| chain 1 D8G | 0.0025 average fractional NGS count over selection days 2 and 3 (reads of this peptide / all reads for the bait, averaged over … |
| chain 1 D8L | 0.00362 average fractional NGS count over selection days 2 and 3 (reads of this peptide / all reads for the bait, averaged over … |
| chain 1 D8R | 0.000182 average fractional NGS count over selection days 2 and 3 (reads of this peptide / all reads for the bait, averaged over … |
| chain 1 D8T | 0.000632 average fractional NGS count over selection days 2 and 3 (reads of this peptide / all reads for the bait, averaged over … |
| chain 1 D8Y | 0.00257 average fractional NGS count over selection days 2 and 3 (reads of this peptide / all reads for the bait, averaged over … |
